From patent CN117624362A come the findings set out here.

The assay concerns the target T1, 人CD20 (human) (UniProt P11836).
T1 sequence (looked up): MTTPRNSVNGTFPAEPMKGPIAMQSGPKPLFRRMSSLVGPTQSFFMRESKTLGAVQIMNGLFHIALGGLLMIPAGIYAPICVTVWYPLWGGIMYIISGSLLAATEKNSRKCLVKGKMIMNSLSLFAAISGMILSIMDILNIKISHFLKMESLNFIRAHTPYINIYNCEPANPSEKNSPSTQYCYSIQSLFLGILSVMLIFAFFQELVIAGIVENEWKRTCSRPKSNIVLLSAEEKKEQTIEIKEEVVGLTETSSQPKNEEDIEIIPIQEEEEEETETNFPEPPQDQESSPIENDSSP
Nature of the assay: flow cytometry titration on lysed human blood cells, dilutions 1:100 to 1:96000 of 1 mg/mL antibody, goat anti-mouse IgG-PE detection. A general note: In flow cytometry, cells or beads pass a laser one at a time.

Turning to “商品化鼠抗人CD20[2H7]抗体 (Biolegend) (antibody)”, the 亲和力(kd) was 195 (1mg/mL).

B1: 鼠抗人CD20[ZXCloneHCD20-07] (antibody, V domains shown)
VH: QVQLQQPGAELVKPGASVKMSCKASGYTFTSYNIHWVKQTPGQGLEWIGAIYPGNGDTSHNQKFKGKATLTADRSSSTAYMQFSSLTSEDSAVYYCARSRRYDGDWSFDVWGAGTTVTVSS
VL: QIVLTQSPAIMSASPGEKVTMTCSASSFITYMHWFQQKSGTSPKRWIYDTSKLASGVPARFSGSGSGTSYSLTISSMEAEDAATYYCQQWNSNPPTFGGGTKLEIKR
Consider B1, for which the 亲和力(kd) was 190 (1mg/mL).
